In PMC12102759 (2025):

B1: NOTCH4 peptide 1606-1621 (Neurogenic locus notch homolog protein 4), 16-mer library wild type / NSP9 (ORF1ab Nsp9, residues 4141-4253) (parent complex)
chain 1: QGAWLGAPEPWEPLLD
chain 2: NNELSPVALRQMSCAAGTTQTACTDDNALAYYNTTKGGRFVLALLSDLQDLKWARFPKSDGTGTIYTELEPPCRFVTDTPKGPKVKYLYFIKGLNNLNRGMVLGSLAATVRLQ

Variants of: B1
Assay: bait immobilised on MaxiSorp plates (10 µg), library pre-cleared on GST, 2 h binding at 4 °C, five washes; one round per day, days 1-4; value from days 2 and 3

| Variant | screen value |
| --- | --- |
| chain 1 QGAWLGAPEVWEPLLD [chain 1 P10V] | 0.00245 average fractional NGS count over selection days 2 and 3 (reads of this peptide / all reads for the bait, averaged over … |
| chain 1 QGAWLGAPEAWEPLLD [chain 1 P10A] | 0.000635 average fractional NGS count over selection days 2 and 3 (reads of this peptide / all reads for the bait, averaged over … |
| chain 1 QGAWLGAPEEWEPLLD [chain 1 P10E] | 0.00264 average fractional NGS count over selection days 2 and 3 (reads of this peptide / all reads for the bait, averaged over … |
| chain 1 QGAWLGAPEGWEPLLD [chain 1 P10G] | 0.000535 average fractional NGS count over selection days 2 and 3 (reads of this peptide / all reads for the bait, averaged over … |
| chain 1 QGAWLGAPEDWEPLLD [chain 1 P10D] | 0.00968 average fractional NGS count over selection days 2 and 3 (reads of this peptide / all reads for the bait, averaged over … |
| chain 1 QGAWLGAPEPWEDLLD [chain 1 P13D] | 0.00132 average fractional NGS count over selection days 2 and 3 (reads of this peptide / all reads for the bait, averaged over … |
| chain 1 QGAWLGAPEPWERLLD [chain 1 P13R] | 0.00106 average fractional NGS count over selection days 2 and 3 (reads of this peptide / all reads for the bait, averaged over … |
| chain 1 QGAWLGAPEPWETLLD [chain 1 P13T] | 0.000368 average fractional NGS count over selection days 2 and 3 (reads of this peptide / all reads for the bait, averaged over … |
| chain 1 QGAWLGAPEPWEFLLD [chain 1 P13F] | 0.0013 average fractional NGS count over selection days 2 and 3 (reads of this peptide / all reads for the bait, averaged over … |
| chain 1 QGAWLGAPEPWENLLD [chain 1 P13N] | 0.000298 average fractional NGS count over selection days 2 and 3 (reads of this peptide / all reads for the bait, averaged over … |
| chain 1 QGAWLGAPEPWEMLLD [chain 1 P13M] | 0.00222 average fractional NGS count over selection days 2 and 3 (reads of this peptide / all reads for the bait, averaged over … |
| chain 1 QGAWLGAPEPWESLLD [chain 1 P13S] | 0.000244 average fractional NGS count over selection days 2 and 3 (reads of this peptide / all reads for the bait, averaged over … |
| chain 1 QGAWLGAPEPWEPLMD [chain 1 L15M] | 0.000609 average fractional NGS count over selection days 2 and 3 (reads of this peptide / all reads for the bait, averaged over … |
| chain 1 QGAWLGAPEPWEPLND [chain 1 L15N] | 0.00024 average fractional NGS count over selection days 2 and 3 (reads of this peptide / all reads for the bait, averaged over … |
| chain 1 QGAWLGAPEPWEPLED [chain 1 L15E] | 0.00221 average fractional NGS count over selection days 2 and 3 (reads of this peptide / all reads for the bait, averaged over … |
| chain 1 QGAWLGAPEPWEPLHD [chain 1 L15H] | 0.00012 average fractional NGS count over selection days 2 and 3 (reads of this peptide / all reads for the bait, averaged over … |
| chain 1 QGAWLGAPEPWEPLVD [chain 1 L15V] | 0.00299 average fractional NGS count over selection days 2 and 3 (reads of this peptide / all reads for the bait, averaged over … |
| chain 1 QGAWLGAPEPWEPLKD [chain 1 L15K] | 0.00133 average fractional NGS count over selection days 2 and 3 (reads of this peptide / all reads for the bait, averaged over … |
| chain 1 QGAWLGAPEPWEPLAD [chain 1 L15A] | 0.00794 average fractional NGS count over selection days 2 and 3 (reads of this peptide / all reads for the bait, averaged over … |

| Variant | screen value |
| --- | --- |
| chain 1 QGAWLGAPEPWEPLSD [chain 1 L15S] | 0.00194 average fractional NGS count over selection days 2 and 3 (reads of this peptide / all reads for the bait, averaged over … |
| chain 1 QGAWLGAPEPWEPLTD [chain 1 L15T] | 0.00153 average fractional NGS count over selection days 2 and 3 (reads of this peptide / all reads for the bait, averaged over … |
| chain 1 QGAWLGAPEPGEPLLD [chain 1 W11G] | 0.0061 average fractional NGS count over selection days 2 and 3 (reads of this peptide / all reads for the bait, averaged over … |
| chain 1 QGAWLGAPEPVEPLLD [chain 1 W11V] | 0.000951 average fractional NGS count over selection days 2 and 3 (reads of this peptide / all reads for the bait, averaged over … |
| chain 1 QGAWLGAPEPPEPLLD [chain 1 W11P] | 0.0013 average fractional NGS count over selection days 2 and 3 (reads of this peptide / all reads for the bait, averaged over … |
| chain 1 QGAWLGAPEPQEPLLD [chain 1 W11Q] | 0.00182 average fractional NGS count over selection days 2 and 3 (reads of this peptide / all reads for the bait, averaged over … |
| chain 1 QGAWLGAPEPFEPLLD [chain 1 W11F] | 0.0024 average fractional NGS count over selection days 2 and 3 (reads of this peptide / all reads for the bait, averaged over … |
| chain 1 QGAWLGAPEPAEPLLD [chain 1 W11A] | 0.00423 average fractional NGS count over selection days 2 and 3 (reads of this peptide / all reads for the bait, averaged over … |
| chain 1 QGTWLGAPEPWEPLLD [chain 1 A3T] | 0.00113 average fractional NGS count over selection days 2 and 3 (reads of this peptide / all reads for the bait, averaged over … |
| chain 1 QGWWLGAPEPWEPLLD [chain 1 A3W] | 0.000101 average fractional NGS count over selection days 2 and 3 (reads of this peptide / all reads for the bait, averaged over … |
| chain 1 QGIWLGAPEPWEPLLD [chain 1 A3I] | 0.00198 average fractional NGS count over selection days 2 and 3 (reads of this peptide / all reads for the bait, averaged over … |
| chain 1 QGQWLGAPEPWEPLLD [chain 1 A3Q] | 0.000713 average fractional NGS count over selection days 2 and 3 (reads of this peptide / all reads for the bait, averaged over … |
| chain 1 QGAWFGAPEPWEPLLD [chain 1 L5F] | 0.000119 average fractional NGS count over selection days 2 and 3 (reads of this peptide / all reads for the bait, averaged over … |
| chain 1 QGAWLGAPEPWEPFLD [chain 1 L14F] | 0.00284 average fractional NGS count over selection days 2 and 3 (reads of this peptide / all reads for the bait, averaged over … |
| chain 1 QGAWLGAPEPWEPPLD [chain 1 L14P] | 0.000127 average fractional NGS count over selection days 2 and 3 (reads of this peptide / all reads for the bait, averaged over … |
| chain 1 QGAWLGAPEPWEPWLD [chain 1 L14W] | 0.000273 average fractional NGS count over selection days 2 and 3 (reads of this peptide / all reads for the bait, averaged over … |
| chain 1 QGAWLGAPEPWEPHLD [chain 1 L14H] | 0.000429 average fractional NGS count over selection days 2 and 3 (reads of this peptide / all reads for the bait, averaged over … |
| chain 1 QGAWLGAPEPWEPRLD [chain 1 L14R] | 0.000211 average fractional NGS count over selection days 2 and 3 (reads of this peptide / all reads for the bait, averaged over … |
| chain 1 QGAWLGAPEPWEPKLD [chain 1 L14K] | 0.00411 average fractional NGS count over selection days 2 and 3 (reads of this peptide / all reads for the bait, averaged over … |

| Variant | screen value |
| --- | --- |
| chain 1 QGAWLGAWEPWEPLLD [chain 1 P8W] | 0.000478 average fractional NGS count over selection days 2 and 3 (reads of this peptide / all reads for the bait, averaged over … |
| chain 1 QGAWLGAQEPWEPLLD [chain 1 P8Q] | 0.000198 average fractional NGS count over selection days 2 and 3 (reads of this peptide / all reads for the bait, averaged over … |
| chain 1 QGAWLGAYEPWEPLLD [chain 1 P8Y] | 0.000389 average fractional NGS count over selection days 2 and 3 (reads of this peptide / all reads for the bait, averaged over … |
| chain 1 QGAWLGAHEPWEPLLD [chain 1 P8H] | 0.00106 average fractional NGS count over selection days 2 and 3 (reads of this peptide / all reads for the bait, averaged over … |
| chain 1 QGAWLGAREPWEPLLD [chain 1 P8R] | 8.2e-05 average fractional NGS count over selection days 2 and 3 (reads of this peptide / all reads for the bait, averaged over … |
| chain 1 QGAWLGADEPWEPLLD [chain 1 P8D] | 0.000161 average fractional NGS count over selection days 2 and 3 (reads of this peptide / all reads for the bait, averaged over … |
| chain 1 QGAWLGAGEPWEPLLD [chain 1 P8G] | 0.000266 average fractional NGS count over selection days 2 and 3 (reads of this peptide / all reads for the bait, averaged over … |
| chain 1 QGAWLGAAEPWEPLLD [chain 1 P8A] | 0.000677 average fractional NGS count over selection days 2 and 3 (reads of this peptide / all reads for the bait, averaged over … |
| chain 1 QGAWLGANEPWEPLLD [chain 1 P8N] | 0.000215 average fractional NGS count over selection days 2 and 3 (reads of this peptide / all reads for the bait, averaged over … |
| chain 1 QGAWLGATEPWEPLLD [chain 1 P8T] | 0.001 average fractional NGS count over selection days 2 and 3 (reads of this peptide / all reads for the bait, averaged over … |
| chain 1 QGAWLGALEPWEPLLD [chain 1 P8L] | 0.000953 average fractional NGS count over selection days 2 and 3 (reads of this peptide / all reads for the bait, averaged over … |
| chain 1 QGAWLGAPQPWEPLLD [chain 1 E9Q] | 0.000696 average fractional NGS count over selection days 2 and 3 (reads of this peptide / all reads for the bait, averaged over … |
| chain 1 QGAWLGAPFPWEPLLD [chain 1 E9F] | 0.000135 average fractional NGS count over selection days 2 and 3 (reads of this peptide / all reads for the bait, averaged over … |
| chain 1 QGAWLGAPMPWEPLLD [chain 1 E9M] | 0.00679 average fractional NGS count over selection days 2 and 3 (reads of this peptide / all reads for the bait, averaged over … |
| chain 1 QGAWLGAPNPWEPLLD [chain 1 E9N] | 0.000953 average fractional NGS count over selection days 2 and 3 (reads of this peptide / all reads for the bait, averaged over … |
| chain 1 QGAWLGAPSPWEPLLD [chain 1 E9S] | 0.00294 average fractional NGS count over selection days 2 and 3 (reads of this peptide / all reads for the bait, averaged over … |
| chain 1 QGAWLGAPPPWEPLLD [chain 1 E9P] | 0.00127 average fractional NGS count over selection days 2 and 3 (reads of this peptide / all reads for the bait, averaged over … |
| chain 1 QGAWLDAPEPWEPLLD [chain 1 G6D] | 0.000544 average fractional NGS count over selection days 2 and 3 (reads of this peptide / all reads for the bait, averaged over … |
